Data published in patent US20130273029A1 (Novartis, published 2013).
Substitutions are numbered along the chain they refer to.

B1: MOR13752 (antibody, human IgG1, kappa, V domains shown)
VH: QVQLVQSGAEVKKPGESLKISCKGSGYSFTNYWVAWVRQMPGKGLEWMGIIYPGGSDTIYSPSFQGQVTISADKSISTAYLQWSSLKASDTAMYYCARVHIIQPPSAWSYNAMDVWGQGTLVTVSS
VL: DIQMTQSPSSLSASVGDRVTITCRASQSISTYLNWYQQKPGKAPKLLIFGASNLQSGVPSRFSGSGSGTDFTLTISSLQPEDFATYYCQQSITELFTFGQGTKVEIKR
notes: tested as IgG
B2: MOR13750 (antibody, human IgG1, kappa, V domains shown)
VH: B1 VH with N31S, Y32S
VL: B1 VL
notes: tested as IgG
B3: MOR13754 (antibody, human IgG1, kappa, V domains shown)
VH: B1 VH with N31S
VL: B1 VL
notes: tested as IgG
B4: MOR13755 (antibody, human IgG1, kappa, V domains shown)
VH: B1 VH with N31T, G55Q
VL: B1 VL
notes: tested as IgG
B5: MOR13756 (antibody, human IgG1, kappa, V domains shown)
VH: B1 VH with N31L, Y32T, G55Q
VL: B1 VL
notes: tested as IgG
B6: MOR13758 (antibody, human IgG1, kappa, V domains shown)
VH: B1 VH with N31L, G55Q
VL: B1 VL
notes: tested as IgG
B7: MOR13759 (antibody, human IgG1, kappa, V domains shown)
VH: B1 VH with N31T, Y32T, G55L
VL: B1 VL
notes: tested as IgG
B8: MOR13761 (antibody, human IgG1, kappa, V domains shown)
VH: B1 VH with N31Q, Y32T, G55Q
VL: B1 VL
notes: tested as IgG
B9: MOR13762 (antibody, human IgG1, kappa, V domains shown)
VH: B1 VH with Y32T, G55Q
VL: B1 VL
notes: tested as IgG
B10: MOR13763 (antibody, human IgG1, kappa, V domains shown)
VH: B1 VH with N31S, G55Q
VL: B1 VL
notes: tested as IgG
B11: MOR13765 (antibody, human IgG1, kappa, V domains shown)
VH: B1 VH with N31G, Y32S, G55T
VL: B1 VL
notes: tested as IgG
B12: MOR13766 (antibody, human IgG1, kappa, V domains shown)
VH: B1 VH with N31T, Y32T, G55S
VL: B1 VL
notes: tested as IgG
B13: MOR12923 (antibody, human IgG1, kappa, V domains shown)
VH: B1 VH with Y32S, G55N
VL: B1 VL with I92M, T93Y, E94L, L95P
B14: MOR12924 (antibody, human IgG1, kappa, V domains shown)
VH: B1 VH with Y32S, G55N
VL: B1 VL with I92V, T93W, L95P, F96A

Target: T1, Human HER3, endogenous, on human cancer cell lines (SK-Br-3, MCF7, BT-474) (human, UniProt P21860 20-1342)
T1 sequence (P21860 20-1342): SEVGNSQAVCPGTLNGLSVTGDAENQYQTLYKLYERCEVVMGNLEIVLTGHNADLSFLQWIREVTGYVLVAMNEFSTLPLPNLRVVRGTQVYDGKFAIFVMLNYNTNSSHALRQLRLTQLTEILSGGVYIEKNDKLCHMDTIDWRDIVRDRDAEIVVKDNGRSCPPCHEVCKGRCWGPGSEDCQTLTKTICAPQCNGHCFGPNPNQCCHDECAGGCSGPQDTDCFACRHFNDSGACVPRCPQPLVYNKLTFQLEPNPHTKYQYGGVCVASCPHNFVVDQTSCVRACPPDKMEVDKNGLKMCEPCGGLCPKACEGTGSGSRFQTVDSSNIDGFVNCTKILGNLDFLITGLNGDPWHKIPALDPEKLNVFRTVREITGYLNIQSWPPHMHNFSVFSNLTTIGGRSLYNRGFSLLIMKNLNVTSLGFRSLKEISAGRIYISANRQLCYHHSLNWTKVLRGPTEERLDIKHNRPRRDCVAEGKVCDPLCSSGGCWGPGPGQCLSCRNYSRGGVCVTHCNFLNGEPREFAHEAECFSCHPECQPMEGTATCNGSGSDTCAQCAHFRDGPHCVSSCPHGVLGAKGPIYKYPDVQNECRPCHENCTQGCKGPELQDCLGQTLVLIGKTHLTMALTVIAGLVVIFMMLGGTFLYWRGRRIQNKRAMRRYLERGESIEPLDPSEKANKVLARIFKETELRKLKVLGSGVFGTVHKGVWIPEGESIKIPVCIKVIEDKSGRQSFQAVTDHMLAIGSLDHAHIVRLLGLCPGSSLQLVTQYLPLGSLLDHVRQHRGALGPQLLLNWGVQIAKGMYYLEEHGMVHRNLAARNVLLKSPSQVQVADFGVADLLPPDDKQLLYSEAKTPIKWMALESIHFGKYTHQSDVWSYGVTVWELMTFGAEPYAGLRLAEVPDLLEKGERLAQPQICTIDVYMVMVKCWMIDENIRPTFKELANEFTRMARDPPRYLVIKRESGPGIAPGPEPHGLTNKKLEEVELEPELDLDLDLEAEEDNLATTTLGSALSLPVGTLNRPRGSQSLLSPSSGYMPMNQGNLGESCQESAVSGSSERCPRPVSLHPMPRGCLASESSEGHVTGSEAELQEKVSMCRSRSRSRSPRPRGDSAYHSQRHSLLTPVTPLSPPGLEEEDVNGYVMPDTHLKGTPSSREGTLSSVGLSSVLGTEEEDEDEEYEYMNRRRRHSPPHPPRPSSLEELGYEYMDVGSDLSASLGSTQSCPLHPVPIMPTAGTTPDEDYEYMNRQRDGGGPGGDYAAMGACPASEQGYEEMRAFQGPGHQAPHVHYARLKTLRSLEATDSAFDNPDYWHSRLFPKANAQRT
Assay: cell-based or functional assay

Binder	BT474 pHER3 % inhibition [%]	BT474 pHER3 IC50 [pM]	SK-Br-3 pHER3 % inhibition [%]	SK-Br-3 pHER3 IC50 [pM]	MCF7 pHER3 % inhibition [%]	MCF7 pHER3 IC50 [pM]
B1	45	4240	71	1000	–	–
B2	44	6680	60	1440	–	–
B3	49	3900	63	606	–	–
B4	73	657	80	217	79	331
B5	66	322	78	95	–	–
B6	67	382	77	91	–	–
B7	70	431	77	124	74	277
B8	56	364	76	62	–	–
B9	41	271	70	90	–	–
B10	60	19500	77	107	–	–
B11	61	806	79	227	71	374
B12	62	708	79	106	72	354
B13	61	1050	74	70	83	540
B14	62	1590	76	123	80	631

Target: T1, Human HER3, endogenous, on human cancer …
Assay: cell-based or functional assay
Remark: another data set of the same source

Binder	BT-474 pAkt (S473) % inhibition [%]	BT-474 pAkt (S473) IC50 [pM]	SK-Br-3 pAkt (S473) % inhibition [%]	SK-Br-3 pAkt (S473) IC50 [pM]	MCF7 pAkt (S473) % inhibition [%]	MCF7 pAkt (S473) IC50 [pM]
B1	76	39100	86	734	–	–
B2	60	17800	83	1640	–	–
B3	64	–	84	465	–	–
B4	79	645	91	131	79	468
B5	86	189	90	107	–	–
B6	78	371	90	110	–	–
B7	81	274	91	60	76	248
B8	83	–	86	52	–	–
B9	86	291	86	63	–	–
B10	76	378	84	76	–	–
B11	73	1180	90	113	71	412
B12	75	1190	91	89	67	296

Target: T1, Human HER3, endogenous, on human cancer …
Assay: cell-based or functional assay
Remark: another data set of the same source

Binder	BT-474 proliferation % inhibition [%]	BT-474 proliferation IC50 [nM]	SK-Br-3 proliferation % inhibition [%]	SK-Br-3 proliferation IC50 [nM]	MCF7 proliferation % inhibition [%]	MCF7 proliferation IC50 [nM]
B1	22	42.8	40	3	–	–
B2	21	13.8	34	5.47	–	–
B3	17	8.01	40	6.47	–	–
B4	41	0.738	52	0.207	–	–
B5	42	0.71	50	0.097	–	–
B6	38	0.516	47	0.133	–	–
B7	35	6.26	41	0.23	49	0.151
B8	36	0.56	48	0.134	–	–
B9	37	0.546	45	0.053	–	–
B10	36	0.671	49	0.326	–	–
B11	27	3.1	46	0.732	–	–
B12	37	2.56	45	2.35	53	–
B13	–	–	42	0.062	29	0.266
B14	–	–	44	0.533	23	0.497

Target: T2, Hu HER3: CD33-[Human HER3, residues 20-640]-TAG (human, UniProt P21860 20-640)
T2 construct: also called hu HER3-Tag; HER3-Tag; not shown: C-terminal TAG (e.g., FLAG TAG)
T2 sequence (P21860 20-640): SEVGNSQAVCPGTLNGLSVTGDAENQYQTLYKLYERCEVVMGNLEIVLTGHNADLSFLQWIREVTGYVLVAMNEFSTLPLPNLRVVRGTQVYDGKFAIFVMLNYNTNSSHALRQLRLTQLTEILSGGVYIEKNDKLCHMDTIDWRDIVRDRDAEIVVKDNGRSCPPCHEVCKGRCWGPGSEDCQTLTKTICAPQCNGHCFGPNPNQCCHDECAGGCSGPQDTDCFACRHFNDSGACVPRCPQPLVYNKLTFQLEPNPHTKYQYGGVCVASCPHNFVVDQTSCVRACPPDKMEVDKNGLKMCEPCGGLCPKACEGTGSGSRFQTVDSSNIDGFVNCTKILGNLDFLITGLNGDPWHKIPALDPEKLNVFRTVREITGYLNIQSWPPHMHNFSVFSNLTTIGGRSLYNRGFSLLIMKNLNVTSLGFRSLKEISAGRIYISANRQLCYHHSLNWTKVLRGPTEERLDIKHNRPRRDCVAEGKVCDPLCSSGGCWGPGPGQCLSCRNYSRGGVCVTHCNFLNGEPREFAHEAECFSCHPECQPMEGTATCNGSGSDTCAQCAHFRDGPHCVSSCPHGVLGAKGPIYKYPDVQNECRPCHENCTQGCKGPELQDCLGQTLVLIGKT
Assay: SET, IgG vs soluble HER3-Tag
Description: Affinity determination in solution was essentially performed as previously described (Friguet et al., (1985) J Immunol Methods 77:305-19). In order to improve the sensitivity and accuracy of the SET method, it was transferred from classical ELISA to ECL based technology (Haenel et al., (2005) Anal Biochem 339:182-84).
The data was evaluated with XLfit software (ID Business Solutions) applying customized fitting models.
Antibody affinity was determined by solution equilibrium titration (SET) as described above. The results are summarized in Table 3 and example titration curves for MOR12616 and MOR12925 are contained in FIG. 1.

Binder	Kd [nM]
B1	0.096
B2	0.16
B3	0.29
B4	0.024
B5	0.025
B6	0.021
B7	0.051
B8	0.028
B9	0.025
B10	0.027
B11	0.064
B12	0.054
